{"source": "patent US20060073146A1", "about": "(Genentech, published 2006)", "molecules": {"B1": {"name": "Flag-AP-APRIL (ligand)", "chain": "AVLTQKQKKQHSVLHLVPINATSKDDSDVTEVMWQPALRRGRGLQAQGYGVRIQDAGVYLLYSQVLFQDVTFTMGQVVSREGQGRQETLFRCIRSMPSHPDRAYNSCYSAGVFHLHQGDILSVIIPRARAKLNLSPHGTFLGFVKL", "notes": "APRIL fused C-terminally to AP, AP fused C-terminally to Flag; not shown: Flag tag of the pCMV-1 Flag vector; human placental alkaline phosphatase"}, "B2": {"name": "TACI-ECD.hFc immunoadhesin (amino acids 2-166 of human TACI fused to human IgG1 Fc) (Fc fusion, not shown: a dimerising Fc or GST)", "chain": "SGLGRSRRGGRSRVDQEERFPQGLWTGVAMRSCPEEQYWDPLLGTCMSCKTICNHQSQRTCAAFCRSLSCRKEQGKFYDHLLRDCISCASICGQHPKQCAYFCENKLRSPVNLPPELRRQRSGEVENNSDNSGRYQGLEHRGSEASPALPGLKLSADQVALVYST", "notes": "also called TACI-IgG; TACI-Fc"}, "B3": {"name": "Flag-LIGHT (ligand, UniProt O43557 82-240, looked up, not shown: small tags and cut ends)", "chain": "QLIQERRSHEVNPAAHLTGANSSLTGSGGPLLWETQLGLAFLRGLSYHDGALVVTKAGYYYIYSKVQLGGVGCPLGLASTITHGLYKRTPRYPEELELLVSQQSPCGRATSSSRVWWDSSFLGGVVHLEAGEKVVVRVLDERLVRLRDGTRSYFGAFMV", "notes": "range 82-240; Control ligand; purified on M2 anti-Flag resin; also called Flag-tagged form of LIGHT"}, "B4": {"name": "Flag-APRIL (ligand, not shown: small tags and cut ends)", "chain": "AVLTQKQKKQHSVLHLVPINATSKDDSDVTEVMWQPALRRGRGLQAQGYGVRIQDAGVYLLYSQVLFQDVTFTMGQVVSREGQGRQETLFRCIRSMPSHPDRAYNSCYSAGVFHLHQGDILSVIIPRARAKLNLSPHGTFLGFVKL", "notes": "also called Flag-tagged APRIL fusion protein"}}, "key": {"Flag-APRIL [1]": {"target": "B4", "test": "ELISA: Flag-APRIL plus control IgG on BCMA-IgG captured by anti-human Fc; bound Flag-APRIL detected with biotinylated anti-Flag"}, "Flag-APRIL [2]": {"target": "B4", "test": "ELISA: Flag-APRIL plus control IgG on TACI-IgG captured by anti-human Fc; bound Flag-APRIL detected with biotinylated anti-Flag"}, "Flag-AP-APRIL": {"target": "B1", "test": "conditioned medium on receptor-transfected COS 7 cells, in situ AP staining"}, "[3]": {"target": "T1, Flag-AP-TALL-1 (Example 2 construct, TALL-1 amino acids 135-285) (human, UniProt Q9Y275 135-285)", "T1 construct": "not shown: Flag tag of the pCMV-1 Flag vector; human placental alkaline phosphatase", "T1 sequence (Q9Y275 135-285)": "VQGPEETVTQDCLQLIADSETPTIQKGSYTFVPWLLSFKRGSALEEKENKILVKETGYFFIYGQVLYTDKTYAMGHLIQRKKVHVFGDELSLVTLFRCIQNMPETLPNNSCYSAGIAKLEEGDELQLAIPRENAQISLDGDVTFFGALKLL", "test": "conditioned medium on receptor-transfected COS 7 cells, in situ AP staining"}, "[4]": {"target": "T2, DcR3-IgG (IgG1-Fc fusion of the ECD of DcR3) (human, UniProt O95407 30-300, limits assumed)", "T2 construct": "extracellular domain; Control immunoadhesin; not shown: IgG1 Fc", "T2 sequence (looked up)": "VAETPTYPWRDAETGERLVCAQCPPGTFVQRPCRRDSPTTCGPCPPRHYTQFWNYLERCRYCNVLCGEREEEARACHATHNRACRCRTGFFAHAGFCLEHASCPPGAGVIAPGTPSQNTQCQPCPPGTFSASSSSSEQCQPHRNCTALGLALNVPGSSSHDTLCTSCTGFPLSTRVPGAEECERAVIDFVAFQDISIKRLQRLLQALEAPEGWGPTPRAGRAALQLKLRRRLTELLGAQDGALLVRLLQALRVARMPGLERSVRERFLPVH", "test": "co-immunoprecipitation (protein A or anti-Flag M2 agarose) and Western blot", "experimental": "(§1) One μg of the purified human or Flag-LIGHT (control), Flag-APRIL, or Flag-TALL-1, or Flag-AP-APRIL, or Flag-AP-TALL-1 was incubated with 1 μg of purified human immunoadhesin containing the IgG1-Fc fusion of the ECD of DcR3 (control; Pitti et al., Nature, 396:699-703 (1998)) or TACI or BCMA overnight at 4° C. in duplicate. The TACI-ECD.hFc immunoadhesins were prepared by methods described in Ashkenazi et al., Proc. Natl. Acad. Sci., 88:10535-10539 (1991). The immunoadhesin constructs consisted of amino acids 2-166 of the human TACI polypeptide (see FIG. 1). The TACI-ECD constructs were expressed in CHO cells using a heterologous signal sequence (pre-pro trypsin amino acids 1-17 of pCMV-1 Flag (Sigma)) and encoding the human IgG1 Fc region downstream of the TACI sequence, and then purified by protein A affinity chromatography. The BCMA-ECD immunoadhesins were prepared by methods described in Ashkenazi et al., as cited above. The immunoadhesin constructs consisted of amino acids 5-51 of the human BCMA polypeptide (see FIG. 2). The BCMA-ECD constructs were expressed in CHO cells using a heterologous signal sequence (pre-pro trypsin amino acids 1-17 of pCMV-1 Flag (Sigma)) and encoding the human IgG1 Fc region downstream of the BCMA sequence, and then purified by protein A affinity chromatography.\n(§2) One set of reactions (FIG. 8; Panels A-C) was subjected to immunoprecipitation through the receptor-immunoadhesin with protein A-agarose (Repligen). The second set of reactions (FIG. 8; panels D-F) was subjected to immunoprecipitation through the Flag-tagged ligand with Anti-Flag mAb-M2-agarose (Sigma). The immunoprecipitates were then analyzed by Western blot with horseradish peroxidase-conjugated anti-Flag M2 mAb (Sigma) to detect the Flag-tagged ligands (FIGS. 8A-C) or horseradish peroxidase-conjugated goat anti-human IgG pAb (Amersham) to detect the receptor-immunoadhesins (FIGS. 8D-F)."}, "[5]": {"target": "T3, TACI (the 265 amino acid form of human TACI, hTACI (265)), expressed on transfected cells (human, UniProt O14836 1-258)", "T3 sequence": "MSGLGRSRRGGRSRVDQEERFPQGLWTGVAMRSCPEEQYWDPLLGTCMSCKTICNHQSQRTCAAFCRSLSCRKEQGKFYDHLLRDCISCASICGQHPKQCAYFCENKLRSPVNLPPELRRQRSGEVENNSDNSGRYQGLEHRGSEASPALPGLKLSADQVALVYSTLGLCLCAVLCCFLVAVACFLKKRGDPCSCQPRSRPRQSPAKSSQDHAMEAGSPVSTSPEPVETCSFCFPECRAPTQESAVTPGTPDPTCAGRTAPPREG", "test": "conditioned medium on receptor-transfected COS 7 cells, in situ AP staining"}, "[6]": {"target": "T4, Human TNF-alpha, membrane form on transfected COS 7 cells (Flag tag inserted between amino acid 70 and 71) (human, UniProt P01375 1-233)", "T4 construct": "whole, on cells", "T4 sequence (P01375 whole entry, the tested form may be a part)": "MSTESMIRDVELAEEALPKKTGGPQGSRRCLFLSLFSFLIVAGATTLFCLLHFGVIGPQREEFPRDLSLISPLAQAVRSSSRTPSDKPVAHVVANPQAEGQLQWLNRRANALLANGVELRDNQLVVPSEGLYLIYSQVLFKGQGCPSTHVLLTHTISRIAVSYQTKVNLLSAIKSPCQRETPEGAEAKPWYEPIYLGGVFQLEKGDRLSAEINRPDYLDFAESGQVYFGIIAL", "test": "Fc fusion on ligand-transfected COS 7 cells, biotinylated anti-human antibody and Cy3-streptavidin staining", "experimental": "Additional assays were conducted to determine whether TACI could serve as a receptor for other members of the TNF family of ligands. COS 7 cells (ATCC) were transiently transfected (using Lipofectamine reagent) with membrane forms of various ligands of TNF family. Among the ligands tested were APRIL, TALL-1, 4-1 BBL, CD27L, CD30L, CD40L, EDA, FasL, GITRL, LT-alpha, OX-40L, RANKL, TNF-alpha, TNF-beta and Apo2L/TRAIL.\nFor the detection of TNF-alpha expression on the cell surface, a Flag tag was inserted between amino acid 70 and amino acid 71 (using the numbering according to the sequence in Pennica et al., supra). An extracellular region of TALL-1 (aa 75-285; see FIG. 3), 4-1BBL (aa 59-254; Goodwin et al., Eur. J. Immunol., 23:2631-2641 (1993)), CD27 ligand (aa 40-193; Goodwin et al., Cell, 73:447-456 (1993)), CD30 ligand (aa 61-234; Smith et al., Cell, 73:1349-1360 (1993)), RANKL (aa 71-317; see WO98/28426), Apo-2 ligand (aa 40-281; see WO97/25428) or Apo-3L (aa 46-249; see WO99/19490) was individually cloned at the BamHI site. […] For APRIL (see FIG. 4) and EDA (Srivastava et al., supra), full length cDNA clones without Flag tag were used.\nTransfected COS 7 cells were subsequently incubated with TACI.ECD.hFC immunoadhesin (prepared as described above). […]"}, "Flag-APRIL [7]": {"target": "B4", "test": "co-immunoprecipitation and Western blot", "experimental": "as §1, with “The immunoadhesin constructs consisted of amino acids 5-51 of the human BCMA polypeptide (see FIG. 2). The BCMA-ECD constructs were expressed in CHO cells using a heterologous signal sequence (pre-pro trypsin amino acids 1-17 of pCMV-1 Flag (Sigma)) and encoding the human IgG1 Fc region downstream of the BCMA sequence, and then purified by protein A affinity chromatography.” left out\nas §2, with “The second set of reactions (FIG. 8; panels D-F) was subjected to immunoprecipitation through the Flag-tagged ligand with Anti-Flag mAb-M2-agarose (Sigma).” left out"}, "Flag-LIGHT": {"target": "B3", "test": "co-immunoprecipitation (protein A or anti-Flag M2 agarose) and Western blot", "experimental": "as §1, §2"}, "[8]": {"target": "T3, TACI (the 265 amino acid form of human …)", "test": "conditioned medium on TACI-transfected COS 7 cells, in situ AP staining", "experimental": "In an in vitro assay, COS 7 cells (ATCC) were seeded into 12 well plates 24 hours before transfection. The cells were then transfected with 1 microgram TACI (the 265 amino acid form of human TACI described above, cloned in pRK5B vector, infra) or vector plasmid (pRK5B) alone. 18-24 hours after transfection, the cells were incubated with conditioned medium containing AP-TALL-1; AP-TNF-alpha; or AP-EDA for 1 hour at room temperature and stained for AP activity in situ as described in Tartaglia et al., Cell, 83:1263-1271 (1995)."}, "[9]": {"target": "B2", "test": "co-immunoprecipitation (protein A or anti-Flag M2 agarose) and Western blot", "experimental": "as §1, §2"}}, "note": "Ends that are not written are not given here.", "data": [{"molecule": "IgG Ctrl (antibody)", "values": [{"measurement": "% Max Binding to BCMA", "setting": "Flag-APRIL [1]", "value": 100, "unit": "%"}, {"measurement": "% Max Binding to TACI", "setting": "Flag-APRIL [2]", "value": 100, "unit": "%"}]}, {"molecule": "BCMA, expressed on transfected cells (receptor) MLQMAGQCSQNEYFDSLLHACIPCQLRCSSNTPPLTCQRYCNASVTNSVKGTNAILWTCLGLSLIISLAVFVLMFLLRKISSEPLKDEFKNTGSGLLGMANIDLEKSRTGDEIILPRGLEYTVEECTCEDCIKSKPKVDSDHCFPLPAMEEGATILVTTKTNDYCKSLPAALSATEIEKSISAR", "values": [{"measurement": "binding result", "setting": "Flag-AP-APRIL", "value": "binds"}, {"measurement": "binding result", "setting": "[3]", "value": "binds"}]}, {"molecule": "B1", "values": [{"measurement": "binding result", "setting": "[4]", "value": "no binding (tested: 1 µg of each)"}, {"measurement": "binding result", "setting": "[5]", "value": "binds"}]}, {"molecule": "AGQCSQNEYFDSLLHACIPCQLRCSSNTPPLTCQRYCNASVTNSVKG (Fc fusion, not shown: a dimerising Fc or GST, not fully specified (C-terminus); cysteine pairing not given here; also: C-terminal fusion to human IgG1 Fc (limits not given here), also called BCMA-IgG; BCMA-Fc)", "note": "[BCMA-ECD immunoadhesin (amino acids 5-51 of human BCMA fused to human IgG1 Fc)]", "values": [{"measurement": "binding result", "setting": "[6]", "value": "no binding"}, {"measurement": "binding result", "setting": "Flag-APRIL [7]", "value": "binds"}, {"measurement": "binding result", "setting": "Flag-LIGHT", "value": "no binding (tested: 1 µg of each)"}]}, {"molecule": "B2", "values": [{"measurement": "binding result", "setting": "[6]", "value": "no binding (tested: 1 µg/ml)"}]}, {"molecule": "AP-EDA (comprising amino acids 241-391 of EDA) (ligand, UniProt Q92838 241-391, looked up, range 241-391; Used as conditioned medium; not shown: human placenta alkaline phosphatase (AP)) AGTRENQPAVVHLQGQGSAIQVKNDLSGGVLNDWSRITMNPKVFKLHPRSGELEVLVDGTYFIYSQVEVYYINFTDFASYEVVVDEKPFLQCTRSIETGKTNYNTCYTAGVCLLKARQKIAVKMVHADISINMSKHTTFFGAIRLGEAPAS", "values": [{"measurement": "binding result", "setting": "[8]", "value": "no binding"}]}, {"molecule": "B3", "values": [{"measurement": "binding result", "setting": "[9]", "value": "no binding (tested: 1 µg of each)"}]}, {"molecule": "B4", "values": [{"measurement": "binding result", "setting": "[4]", "value": "no binding (tested: 1 µg of each)"}]}]}
